Source: US20190092846A1

T1: human recombinant TGF-β2 (human)
T1 sequence: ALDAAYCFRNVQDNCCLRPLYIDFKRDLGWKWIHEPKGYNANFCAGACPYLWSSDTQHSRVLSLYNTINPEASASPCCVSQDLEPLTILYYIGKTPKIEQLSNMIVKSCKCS

T2: human TGF-β3 (human) (UniProt P10600)
T2 sequence: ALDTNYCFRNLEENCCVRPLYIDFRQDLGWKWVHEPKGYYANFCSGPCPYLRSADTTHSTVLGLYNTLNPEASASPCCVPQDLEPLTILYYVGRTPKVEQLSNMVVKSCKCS

T3: mouse recombinant TGF-β2 (mouse) (UniProt P27090)
T3 sequence (looked up): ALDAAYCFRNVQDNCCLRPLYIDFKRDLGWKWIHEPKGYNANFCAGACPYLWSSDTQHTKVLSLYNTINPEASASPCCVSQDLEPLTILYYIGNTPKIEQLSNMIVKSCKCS


How the values were obtained:
[1] = target: T1, human recombinant TGF-β2 (human); assay: cell-based or functional assay
human TGF-β3 (human) [2] = target: T2, human TGF-β3 (human); assay: cell-based or functional assay
[3] = target: T3, mouse recombinant TGF-β2 (mouse); assay: cell-based or functional assay
human TGF-β1 (human) = human TGF-β1 (human) (UniProt P01137); assay: cell-based or functional assay
Sequence of human TGF-β1 (human) (P01137 279-390 limits assumed): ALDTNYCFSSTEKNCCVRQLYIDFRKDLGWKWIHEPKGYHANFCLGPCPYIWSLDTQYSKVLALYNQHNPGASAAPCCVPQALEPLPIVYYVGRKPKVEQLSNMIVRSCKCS

[4] = target: T1, human recombinant TGF-β2 (human); assay: ratio of the KD values of Table 4
[5] = target: T1, human recombinant TGF-β2 (human); assay: BiaCORE (surface plasmon resonance)
human TGF-β3 (human) [6] = target: T2, human TGF-β3 (human); assay: BiaCORE (surface plasmon resonance)
[7] = target: T3, mouse recombinant TGF-β2 (mouse)

| Binder | RGA (CAGA-12 luc/Smad-2/3 RGA; IC 50 [pM]) [1] [pM] | RGA (CAGA-12 luc/Smad-2/3 RGA; IC 50 [pM]) (human TGF-β3 (human) [2]) [pM] | RGA (CAGA-12 luc/Smad-2/3 RGA; IC 50 [pM]) [3] [pM] | RGA (CAGA-12 luc/Smad-2/3 RGA; IC 50 [pM]) (human TGF-β1 (human)) [pM] | fold lower KD for TGFβ2 than for TGFbeta 3 [4] [fold] | Kd [5] [nM] | Kd (human TGF-β3 (human) [6]) [nM] | IC50 (read off the curve) (CAGA-12 luciferase reporter gene assay, HEK293T/17) [7] [nM] |
| --- | --- | --- | --- | --- | --- | --- | --- | --- |
| CAT-152 (antibody, INN chains, looked up, human IgG4, V domains shown) VH: EVQLVESGGGVVQPGRSLRLSCAASGFTFSSYGMHWVRQAPGKGLEWVAVIWYDGSNKYYADSVKGRFTISRDNSKNTLYLQMDSLRAEDTAVYYCGRTLESSLWGQGTLVTVSS VL: SSELTQDPAVSVALGQTVRITCQGDSLRSYYASWYQQKPGQAPVLVIYGKNNRPSGIPDRFSGSSSGNTASLTITGAQAEDEADYYCNSRDSSSTHRGVFGGGTKLTVL | 26 | 1230 | 298 | > 100000 | 16 | 0.073 | 1.18 | 0.3 |
| 1D11 (antibody, from another filing, V domains shown) VH: QVQLQQSGPELVRPGASVKLSCKASGYIFITYWMNWVKQRPGQGLEWIGQIFPASGSTNYNEMFEGKATLTVDTSSSTAYMQLSSLTSEDSAVYYCARGDGNYALDAMDYWGQGTSVTVSS VL: DIVLTQSPASLAVSLGQRATISCRASESVDSYGNSFMHWYQQKSGQPPKLLIYLASNLESGVPARFSGSGSRTDFTLTIDPVEADDAATYYCQQNNEDPLTFGAGTKLEIK | – | – | > 100000 | – | – | – | – | – |
